The nature of this experiment: Cell lysate reaction of pMT enzymes with psi-ionone, irones quantified by HS-SPME-GCMS. As to conditions: AUC vs non-mutated (=1). The class given is biochemical. The protocol: Using the structure of pMT1 in complex with the cofactor S-adenosyl-L-homocysteine (SAH) and the substrate teleocidin A1 (PDB id: 5GM2) as a template, pMT1 bound to each of the four isomers of α-irone was modelled with the aim of identifying amino acid residues that could be critical to increase cis-α-irone or decrease trans-α-irone production (FIGS. 2d and 2e). […] Site-directed mutagenesis of the 24 residues was carried out with degenerative primers. Subsequently, the mutants of each site were pooled together, and examined if the activity or product-selectivity of the pooled mutants were increased (FIG. 8). This reduced the number of screening reactions to 24, which is manageable when a high-throughput enzymatic assay is not available. […] One residue was chosen and subjected to site-saturation mutagenesis by using degenerative primers containing NNN or NNK. The plasmid library was then transformed into E. coli BL21 (DE3) cells and plated on agar plate containing autoinduction media^19. […] Subsequently, the colonies were collected and resuspended in phosphate saline buffer. Equal number of cells was taken for lysis and cell lysate reactions were carried out in capped SPME-GC vials at 28° C. for 2 days. HS-SPME-GCMS analysis was used to quantify the amount of irones produced by each pooled-colony reaction. […] 24 residues including the control Gly85 (G85m) were subjected to site-saturation mutagenesis, using pMT1 as the template. […] The amount of cis-α-irone produced was estimated based on the area under the gas chromatogram curve (AUC). The fold change is calculated by comparing the AUC of cis-α-irone produced by the mutant enzyme to that of non-mutated.
For each pMT mutant, it was transformed into BL21 and grown in autoinduction media with 5 mM lactose at 20° C. for 36 hrs. Then, cells were pelleted and concentrated 10 times by adding 1 ml of PBS. The OD600 was measured and 40*600 OD*ul cells were transferred into a new 1.5 ml tube. The cells were spun down and resuspended in 600 μl of lysis buffer (1×DNase buffer, 150 mM NaCl, 0.5% glycerol, 1 mg/ml lysozyme and 20U of DNasel). The cells were incubated for 2 hrs at 20° C. with shaking at 300 rpm. Following that, 2 cycles of freeze-thaw was done to completely lyse the cells. At the end of the 2nd thawing, the cell lysate was used to setup a 1 ml reaction in 2 ml GC vials. The reaction consisted of 50 mM Tris (pH7), 10 mM MgCl2, 60 mM NaCl, 0.2 mM SAM and 10 mg/L of psi-ionone and caryophyllene each. To this, 500 μl of cell lysate was added while the remaining 100 μl was used for SDS-PAGE to analyze the total and soluble protein expression. The reaction was incubated for 2 days at 28° C., 300 rpm prior to extraction of cis-α-irone with 500 μl hexane. From this, 20 μl of organic layer was taken into 180 μl hexane for GCMS analysis.
For the mutant pMT activity screening, the reactants and products were analyzed by head space solid phase microextraction (HS-SPME) coupled with an Agilent 5977B gas chromatography (GC) system equipped with Agilent DB-5 ms column (30 m×250 μm×0.25 μm) and mass spectrometry (MS) with high efficiency source. The reaction mixtures were carried out in SPME vials which were incubated at 60° C. for 20 mins to allow the release of volatile compounds. The absorbent fiber (50/30 μm divinylbenzol/carboxen/polydimethyl-SPME fiber, SUPELCO) was then exposed to the headspace of the vial for 20 mins. The extracted analytes were desorbed at the GC inlet at 250° C. for 1 min and injected into GC with a split ratio of 200:1. The GC oven temperature increased from 50° C. to 140° C. at a rate of 10° C./min and held at 140° C. for 10 min. Subsequently, the temperature was increased to 320° C. at a rate of 60° C./min and held at 320° C. for 2 mins.

B1: pMT1_Y200H: pMT1 with Y200H (protein)
chain: MPQEARTPQQQVTADEVGDWYDKFGEVYHLTLGESVHCGLWFPPDAPVPQDMELVTMSSQAQDRYTDYLIETLDPKAGQHLLDIGCGTGRTALKAARQRGIAVTGVAVSKEQIAAANRLAAGHGLTERLTFEVADAMRLPYEDESFDCAWAIESLCHMDRAKALGEAWRVLKPGGDLLVLESVVTEELTEPETALFETLHAANVPPRLGEFFDIVSGAGFHTLSLKDLSANLAMTMNVFALGVYSRRAEFTERFGAEFVDGLLAGLGSAQETLIRKTRFFMATLRKPAV
B1: the “fold change in cis-α-irone produced” value (pMT1_Y200 mutants) came out at 0.2.

B2: pMT1_R160I: pMT1 with R160I (protein)
chain: MPQEARTPQQQVTADEVGDWYDKFGEVYHLTLGESVHCGLWFPPDAPVPQDMELVTMSSQAQDRYTDYLIETLDPKAGQHLLDIGCGTGRTALKAARQRGIAVTGVAVSKEQIAAANRLAAGHGLTERLTFEVADAMRLPYEDESFDCAWAIESLCHMDIAKALGEAWRVLKPGGDLLVLESVVTEELTEPETALFETLYAANVPPRLGEFFDIVSGAGFHTLSLKDLSANLAMTMNVFALGVYSRRAEFTERFGAEFVDGLLAGLGSAQETLIRKTRFFMATLRKPAV
As for B2, the “fold change in cis-α-irone produced” value (pMT1_R160 mutants) is listed as 1.5.

B3: pMT1_E153K: pMT1 with E153K (protein)
chain: MPQEARTPQQQVTADEVGDWYDKFGEVYHLTLGESVHCGLWFPPDAPVPQDMELVTMSSQAQDRYTDYLIETLDPKAGQHLLDIGCGTGRTALKAARQRGIAVTGVAVSKEQIAAANRLAAGHGLTERLTFEVADAMRLPYEDESFDCAWAIKSLCHMDRAKALGEAWRVLKPGGDLLVLESVVTEELTEPETALFETLYAANVPPRLGEFFDIVSGAGFHTLSLKDLSANLAMTMNVFALGVYSRRAEFTERFGAEFVDGLLAGLGSAQETLIRKTRFFMATLRKPAV
Consider B3, for which, where the note is “pMT1_E153 mutants”, the “fold change in cis-α-irone produced” value was 0.0.

B4: pMT1_E153I: pMT1 with E153I (protein)
chain: MPQEARTPQQQVTADEVGDWYDKFGEVYHLTLGESVHCGLWFPPDAPVPQDMELVTMSSQAQDRYTDYLIETLDPKAGQHLLDIGCGTGRTALKAARQRGIAVTGVAVSKEQIAAANRLAAGHGLTERLTFEVADAMRLPYEDESFDCAWAIISLCHMDRAKALGEAWRVLKPGGDLLVLESVVTEELTEPETALFETLYAANVPPRLGEFFDIVSGAGFHTLSLKDLSANLAMTMNVFALGVYSRRAEFTERFGAEFVDGLLAGLGSAQETLIRKTRFFMATLRKPAV
With B4, where the note is “pMT1_E153 mutants”, the “fold change in cis-α-irone produced” value is 0.0.

B5: pMT1_M236I: pMT1 with M236I (protein)
chain: MPQEARTPQQQVTADEVGDWYDKFGEVYHLTLGESVHCGLWFPPDAPVPQDMELVTMSSQAQDRYTDYLIETLDPKAGQHLLDIGCGTGRTALKAARQRGIAVTGVAVSKEQIAAANRLAAGHGLTERLTFEVADAMRLPYEDESFDCAWAIESLCHMDRAKALGEAWRVLKPGGDLLVLESVVTEELTEPETALFETLYAANVPPRLGEFFDIVSGAGFHTLSLKDLSANLAMTINVFALGVYSRRAEFTERFGAEFVDGLLAGLGSAQETLIRKTRFFMATLRKPAV
For B5, under “pMT1_M236 mutants”, the “fold change in cis-α-irone produced” value was determined as 0.5.

B6: pMT1_R160K: pMT1 with R160K (protein)
chain: MPQEARTPQQQVTADEVGDWYDKFGEVYHLTLGESVHCGLWFPPDAPVPQDMELVTMSSQAQDRYTDYLIETLDPKAGQHLLDIGCGTGRTALKAARQRGIAVTGVAVSKEQIAAANRLAAGHGLTERLTFEVADAMRLPYEDESFDCAWAIESLCHMDKAKALGEAWRVLKPGGDLLVLESVVTEELTEPETALFETLYAANVPPRLGEFFDIVSGAGFHTLSLKDLSANLAMTMNVFALGVYSRRAEFTERFGAEFVDGLLAGLGSAQETLIRKTRFFMATLRKPAV
On to B6, for which the “fold change in cis-α-irone produced” value (pMT1_R160 mutants) is listed as 0.0.

B7: pMT1_E153H: pMT1 with E153H (protein)
chain: MPQEARTPQQQVTADEVGDWYDKFGEVYHLTLGESVHCGLWFPPDAPVPQDMELVTMSSQAQDRYTDYLIETLDPKAGQHLLDIGCGTGRTALKAARQRGIAVTGVAVSKEQIAAANRLAAGHGLTERLTFEVADAMRLPYEDESFDCAWAIHSLCHMDRAKALGEAWRVLKPGGDLLVLESVVTEELTEPETALFETLYAANVPPRLGEFFDIVSGAGFHTLSLKDLSANLAMTMNVFALGVYSRRAEFTERFGAEFVDGLLAGLGSAQETLIRKTRFFMATLRKPAV
Turning to B7, the “fold change in cis-α-irone produced” value (pMT1_E153 mutants) was 0.0.

B8: pMT1_M236K: pMT1 with M236K (protein)
chain: MPQEARTPQQQVTADEVGDWYDKFGEVYHLTLGESVHCGLWFPPDAPVPQDMELVTMSSQAQDRYTDYLIETLDPKAGQHLLDIGCGTGRTALKAARQRGIAVTGVAVSKEQIAAANRLAAGHGLTERLTFEVADAMRLPYEDESFDCAWAIESLCHMDRAKALGEAWRVLKPGGDLLVLESVVTEELTEPETALFETLYAANVPPRLGEFFDIVSGAGFHTLSLKDLSANLAMTKNVFALGVYSRRAEFTERFGAEFVDGLLAGLGSAQETLIRKTRFFMATLRKPAV
As to B8, where the note is “pMT1_M236 mutants”, the “fold change in cis-α-irone produced” value amounted to 0.0.

B9: pMT1_R160L (protein)
chain: MPQEARTPQQQVTADEVGDWYDKFGEVYHLTLGESVHCGLWFPPDAPVPQDMELVTMSSQAQDRYTDYLIETLDPKAGQHLLDIGCGTGRTALKAARQRGIAVTGVAVSKEQIAAANRLAAGHGLTERLTFEVADAMRLPYEDESFDCAWAIESLCHMDLAKALGEAWRVLKPGGDLLVLESVVTEELTEPETALFETLYAANVPPRLGEFFDIVSGAGFHTLSLKDLSANLAMTMNVFALGVYSRRAEFTERFGAEFVDGLLAGLGSAQETLIRKTRFFMATLRKPAV
For the molecule B9, the “fold change in cis-α-irone produced” value (pMT1_R160 mutants) came out at 0.9.

B10: pMT1_Y200K: pMT1 with Y200K (protein)
chain: MPQEARTPQQQVTADEVGDWYDKFGEVYHLTLGESVHCGLWFPPDAPVPQDMELVTMSSQAQDRYTDYLIETLDPKAGQHLLDIGCGTGRTALKAARQRGIAVTGVAVSKEQIAAANRLAAGHGLTERLTFEVADAMRLPYEDESFDCAWAIESLCHMDRAKALGEAWRVLKPGGDLLVLESVVTEELTEPETALFETLKAANVPPRLGEFFDIVSGAGFHTLSLKDLSANLAMTMNVFALGVYSRRAEFTERFGAEFVDGLLAGLGSAQETLIRKTRFFMATLRKPAV
For B10, the “fold change in cis-α-irone produced” value (pMT1_Y200 mutants) is 0.0.

B11: pMT1_Y200I: pMT1 with Y200I (protein)
chain: MPQEARTPQQQVTADEVGDWYDKFGEVYHLTLGESVHCGLWFPPDAPVPQDMELVTMSSQAQDRYTDYLIETLDPKAGQHLLDIGCGTGRTALKAARQRGIAVTGVAVSKEQIAAANRLAAGHGLTERLTFEVADAMRLPYEDESFDCAWAIESLCHMDRAKALGEAWRVLKPGGDLLVLESVVTEELTEPETALFETLIAANVPPRLGEFFDIVSGAGFHTLSLKDLSANLAMTMNVFALGVYSRRAEFTERFGAEFVDGLLAGLGSAQETLIRKTRFFMATLRKPAV
As for B11, the “fold change in cis-α-irone produced” value (pMT1_Y200 mutants) is 2.0.

B12: pMT1_M236H: pMT1 with M236H (protein)
chain: MPQEARTPQQQVTADEVGDWYDKFGEVYHLTLGESVHCGLWFPPDAPVPQDMELVTMSSQAQDRYTDYLIETLDPKAGQHLLDIGCGTGRTALKAARQRGIAVTGVAVSKEQIAAANRLAAGHGLTERLTFEVADAMRLPYEDESFDCAWAIESLCHMDRAKALGEAWRVLKPGGDLLVLESVVTEELTEPETALFETLYAANVPPRLGEFFDIVSGAGFHTLSLKDLSANLAMTHNVFALGVYSRRAEFTERFGAEFVDGLLAGLGSAQETLIRKTRFFMATLRKPAV
For B12, where the note is “pMT1_M236 mutants”, the “fold change in cis-α-irone produced” value was found to be 2.6.

The values are drawn from patent publication US20240240209A1, “SYNTHESIS OF ENANTIOPURE CIS-A-IRONE FROM A RENEWABLE CARBON SOURCE” (Agency for Science, Technology and Research, priority 2021, published 2024).
